{"source": "paper PMC3491057", "about": "“Proliferating Cell Nuclear Antigen (PCNA) Interactions in Solution Studied by NMR” (PLoS ONE, 2012)", "origin": "cited, not measured here", "key": {"[1]": {"biological_target": "p21 87-164 (Homo sapiens) (UniProt P38936)", "sequence (P38936 87-164)": "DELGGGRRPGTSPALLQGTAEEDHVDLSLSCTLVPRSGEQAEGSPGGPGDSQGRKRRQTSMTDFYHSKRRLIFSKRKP"}, "[2]": {"biological_target": "p21 (p2120) 141-160 (Homo sapiens) (UniProt P38936)", "sequence (P38936 141-160)": "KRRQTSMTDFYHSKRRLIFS"}, "Fen-1 (Homo sapiens)": {"biological_target": "Fen-1 (Homo sapiens) (UniProt P39748)", "sequence (P39748 whole entry)": "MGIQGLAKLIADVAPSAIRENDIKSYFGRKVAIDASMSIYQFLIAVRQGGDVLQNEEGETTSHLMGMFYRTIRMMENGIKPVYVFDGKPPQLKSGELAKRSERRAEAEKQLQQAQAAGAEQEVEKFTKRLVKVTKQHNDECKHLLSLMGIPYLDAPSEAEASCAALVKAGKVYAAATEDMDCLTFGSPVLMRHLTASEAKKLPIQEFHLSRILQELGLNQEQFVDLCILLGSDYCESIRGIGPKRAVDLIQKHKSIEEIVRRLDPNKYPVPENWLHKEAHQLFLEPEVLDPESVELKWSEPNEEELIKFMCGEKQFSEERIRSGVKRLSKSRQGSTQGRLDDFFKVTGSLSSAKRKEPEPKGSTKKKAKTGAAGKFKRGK", "assay": "SPR"}, "[3]": {"biological_target": "p21 (p2122) 139-160 (Homo sapiens) (UniProt P38936)", "sequence (P38936 139-160)": "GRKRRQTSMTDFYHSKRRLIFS"}}, "note": "pKd: −log10 of the molar value.", "data": [{"substance": "PCNA (from UniProt P12004)", "values": [{"measurement": "pKd", "setting": "[1]", "value": 7.82}, {"measurement": "pKd", "setting": "[2]", "value": 7.06}, {"measurement": "pKd", "setting": "Fen-1 (Homo sapiens)", "value": 7.22}, {"measurement": "pKd", "setting": "[3]", "value": 7.08}]}]}
